Reference: the supplement of paper PMC9112550, “Optimization of the antimicrobial peptide Bac7 by deep mutational scanning” (BMC Biology, 2022)

Tested on: Escherichia coli TOP10
Test: shrunken log2 fold change of peptide-encoding DNA abundance (4.5 h post-induction vs induction); higher = less antimicrobial activity (less host growth inhibition)
Conditions: time post-induction: 4.5 h; library: site-saturation at positions 5, 18, 19, 20
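Also: peptides expressed intracellularly from a pBAD plasmid library in pooled LB shake-flask culture, induced with 0.3% L-arabinose, DNA abundance read by NGS, three biological replicates, DESeq2 with apeglm shrinkage.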

Sequence	shrunken log2 fold change
RRIRTRPPRLPRPRPRPPIKPRP	-0.368
RRIRIRPPRLPRPRPRPAKGPRP	-0.224
RRIRDRPPRLPRPRPRPYQAPRP	-0.0283
RRIRFRPPRLPRPRPRPSENPRP	-0.458
RRIRSRPPRLPRPRPRPHKGPRP	-0.22
RRIRFRPPRLPRPRPRPMDGPRP	-0.0177
RRIRIRPPRLPRPRPRPTKYPRP	-0.681
RRIRHRPPRLPRPRPRPDRAPRP	0.217
RRIRARPPRLPRPRPRPHPSPRP	0.327
RRIRKRPPRLPRPRPRPQFTPRP	-0.0285
RRIRDRPPRLPRPRPRPSHAPRP	0.0738
RRIRYRPPRLPRPRPRPESWPRP	-0.0403
RRIRFRPPRLPRPRPRPVTSPRP	-0.0369
RRIRKRPPRLPRPRPRPEEYPRP	0.0303
RRIRDRPPRLPRPRPRPWARPRP	-0.0626
RRIRCRPPRLPRPRPRPGWKPRP	0.173
RRIRTRPPRLPRPRPRPDLVPRP	-0.0188
RRIRKRPPRLPRPRPRPSCVPRP	0.311
RRIRGRPPRLPRPRPRPKDVPRP	-0.0336
RRIRQRPPRLPRPRPRPASWPRP	0.00959
RRIRPRPPRLPRPRPRPEPNPRP	0.293
RRIRYRPPRLPRPRPRPVIIPRP	-0.156
RRIRCRPPRLPRPRPRPWIKPRP	-1.1
RRIRCRPPRLPRPRPRPHMNPRP	-0.843
RRIRFRPPRLPRPRPRPWQGPRP	0.00425

Sequence	shrunken log2 fold change
RRIRDRPPRLPRPRPRPCHPPRP	-0.0697
RRIRARPPRLPRPRPRPMLLPRP	-0.0981
RRIRMRPPRLPRPRPRPCCQPRP	0.212
RRIRCRPPRLPRPRPRPQYHPRP	-0.425
RRIRERPPRLPRPRPRPNHRPRP	-0.101
RRIRQRPPRLPRPRPRPFWEPRP	-0.0669
RRIRIRPPRLPRPRPRPGWCPRP	-0.082
RRIRYRPPRLPRPRPRPANQPRP	-0.131
RRIRWRPPRLPRPRPRPMGWPRP	0.299
RRIRHRPPRLPRPRPRPFIYPRP	-0.831
RRIRSRPPRLPRPRPRPWSWPRP	0.405
RRIRRRPPRLPRPRPRPAWYPRP	0.176
RRIRTRPPRLPRPRPRPNFLPRP	0.998
RRIRLRPPRLPRPRPRPRNMPRP	-0.0899
RRIRVRPPRLPRPRPRPKLTPRP	-0.0989
RRIRKRPPRLPRPRPRPKDDPRP	0.0898
RRIRERPPRLPRPRPRPPSSPRP	0.0527
RRIRMRPPRLPRPRPRPSRMPRP	0.454
RRIRMRPPRLPRPRPRPFRIPRP	0.0254
RRIRQRPPRLPRPRPRPFLIPRP	-1.81
RRIRGRPPRLPRPRPRPKSWPRP	0.925
RRIRFRPPRLPRPRPRPQVSPRP	-0.298
RRIRSRPPRLPRPRPRPTGFPRP	-0.0473
RRIRMRPPRLPRPRPRPHQDPRP	-0.117
RRIRCRPPRLPRPRPRPWATPRP	0.00822

Sequence	shrunken log2 fold change
RRIRLRPPRLPRPRPRPGGQPRP	0.319
RRIRKRPPRLPRPRPRPYNTPRP	-0.339
RRIRCRPPRLPRPRPRPSHWPRP	-0.204
RRIRGRPPRLPRPRPRPAKSPRP	0.492
RRIRTRPPRLPRPRPRPEVCPRP	0.212
RRIRVRPPRLPRPRPRPIDVPRP	-0.0749
RRIRIRPPRLPRPRPRPWWTPRP	-0.0807
RRIRLRPPRLPRPRPRPEADPRP	0.357
RRIRMRPPRLPRPRPRPRRCPRP	1.08
RRIRWRPPRLPRPRPRPIRNPRP	-0.334
RRIRFRPPRLPRPRPRPQVKPRP	-0.279
RRIRQRPPRLPRPRPRPTILPRP	0.939
RRIRHRPPRLPRPRPRPCAFPRP	-0.176
RRIRQRPPRLPRPRPRPARLPRP	0.0512
RRIRTRPPRLPRPRPRPRTDPRP	-0.0849
RRIRARPPRLPRPRPRPVTSPRP	0.293
RRIRLRPPRLPRPRPRPCDRPRP	-0.114
RRIRYRPPRLPRPRPRPMTCPRP	-0.122
RRIRWRPPRLPRPRPRPLLVPRP	0.172
RRIRLRPPRLPRPRPRPLHMPRP	-0.112
RRIRWRPPRLPRPRPRPLIGPRP	0.0414
RRIRHRPPRLPRPRPRPWWMPRP	0.0619
RRIRQRPPRLPRPRPRPIATPRP	-0.0607
RRIRGRPPRLPRPRPRPAWQPRP	0.395
RRIRERPPRLPRPRPRPVTWPRP	-0.165

Sequence	shrunken log2 fold change
RRIRYRPPRLPRPRPRPNCQPRP	-0.0282
RRIRGRPPRLPRPRPRPNSIPRP	0.00326
RRIRYRPPRLPRPRPRPLPNPRP	-0.296
RRIRRRPPRLPRPRPRPPSCPRP	0.301
RRIRERPPRLPRPRPRPKSPPRP	0.163
RRIRNRPPRLPRPRPRPTPQPRP	0.232
RRIRRRPPRLPRPRPRPDHHPRP	-0.254
RRIRDRPPRLPRPRPRPETQPRP	0.476
RRIRNRPPRLPRPRPRPHRDPRP	-0.0417
RRIRCRPPRLPRPRPRPEKDPRP	-0.0681
RRIRFRPPRLPRPRPRPPCSPRP	0.0952
RRIRQRPPRLPRPRPRPRMWPRP	-0.429
RRIRSRPPRLPRPRPRPNSGPRP	0.0845
RRIRRRPPRLPRPRPRPHHYPRP	-0.168
RRIRARPPRLPRPRPRPMVTPRP	0.21
RRIRPRPPRLPRPRPRPDKAPRP	0.00631
RRIRGRPPRLPRPRPRPFKAPRP	0.2
RRIRMRPPRLPRPRPRPLYKPRP	-0.134
RRIRFRPPRLPRPRPRPATTPRP	-0.0275
RRIRERPPRLPRPRPRPRKNPRP	-0.0182
RRIRGRPPRLPRPRPRPVVPPRP	0.338
RRIRPRPPRLPRPRPRPFTFPRP	-0.189
RRIRGRPPRLPRPRPRPVWQPRP	0.174
RRIRLRPPRLPRPRPRPNWNPRP	-0.386
RRIRGRPPRLPRPRPRPAECPRP	0.196

Sequence	shrunken log2 fold change
RRIRHRPPRLPRPRPRPCSGPRP	-0.0968
RRIRPRPPRLPRPRPRPQEVPRP	0.0706
RRIRMRPPRLPRPRPRPLFMPRP	0.0387
RRIRRRPPRLPRPRPRPVWKPRP	0.147
RRIRDRPPRLPRPRPRPWCRPRP	0.0772
RRIRMRPPRLPRPRPRPEENPRP	3.95
RRIRGRPPRLPRPRPRPKWIPRP	0.118
RRIRKRPPRLPRPRPRPPHRPRP	0.501
RRIRIRPPRLPRPRPRPSLVPRP	0.0916
RRIRGRPPRLPRPRPRPFEFPRP	-0.157
RRIRVRPPRLPRPRPRPSVIPRP	-0.239
RRIRVRPPRLPRPRPRPPWDPRP	0.445
RRIRIRPPRLPRPRPRPEHQPRP	-0.0287
RRIRKRPPRLPRPRPRPFYFPRP	0.00515
RRIRMRPPRLPRPRPRPKNRPRP	0.375
RRIRSRPPRLPRPRPRPWHRPRP	-0.024
RRIRHRPPRLPRPRPRPEFLPRP	-0.0472
RRIRGRPPRLPRPRPRPKRSPRP	0.301
RRIRKRPPRLPRPRPRPEMGPRP	0.502
RRIRWRPPRLPRPRPRPRIWPRP	-0.0288
RRIRDRPPRLPRPRPRPKAWPRP	0.107
RRIRGRPPRLPRPRPRPQKVPRP	0.129
RRIRCRPPRLPRPRPRPKFPPRP	-0.0293
RRIRWRPPRLPRPRPRPERAPRP	0.707
RRIRIRPPRLPRPRPRPKHKPRP	-0.508

Sequence	shrunken log2 fold change
RRIRERPPRLPRPRPRPSDFPRP	-0.149
RRIRKRPPRLPRPRPRPHDRPRP	0.29
RRIRTRPPRLPRPRPRPLQMPRP	0.2
RRIRCRPPRLPRPRPRPAWRPRP	0.575
RRIRVRPPRLPRPRPRPATTPRP	0.0611
RRIRIRPPRLPRPRPRPRMVPRP	0.0922
RRIRYRPPRLPRPRPRPAFAPRP	-0.0121
RRIRHRPPRLPRPRPRPDMGPRP	0.00739
RRIRERPPRLPRPRPRPGQEPRP	0.0214
RRIRSRPPRLPRPRPRPLMSPRP	-0.0126
RRIRARPPRLPRPRPRPGDLPRP	0.796
RRIRQRPPRLPRPRPRPTWSPRP	0.136
RRIRRRPPRLPRPRPRPMPLPRP	2.47
RRIRPRPPRLPRPRPRPYKFPRP	-0.178
RRIRRRPPRLPRPRPRPSFFPRP	0.0112
RRIRKRPPRLPRPRPRPKWAPRP	0.0446
RRIRDRPPRLPRPRPRPMNVPRP	0.0651
RRIRLRPPRLPRPRPRPIFQPRP	-0.192
RRIRGRPPRLPRPRPRPALPPRP	0.696
RRIRMRPPRLPRPRPRPNFTPRP	-0.099
RRIRNRPPRLPRPRPRPDVSPRP	-0.0754
RRIRARPPRLPRPRPRPPQYPRP	0.33
RRIRSRPPRLPRPRPRPIRGPRP	-0.0109
RRIRGRPPRLPRPRPRPEYPPRP	0.77
RRIRSRPPRLPRPRPRPWLWPRP	1.45
